Test results from publication PMC4991794.

Biological target: T1, SenRc (His-tagged response regulator) (Streptomyces coelicolor A3(2)) (UniProt Q9KXW5)
T1 sequence: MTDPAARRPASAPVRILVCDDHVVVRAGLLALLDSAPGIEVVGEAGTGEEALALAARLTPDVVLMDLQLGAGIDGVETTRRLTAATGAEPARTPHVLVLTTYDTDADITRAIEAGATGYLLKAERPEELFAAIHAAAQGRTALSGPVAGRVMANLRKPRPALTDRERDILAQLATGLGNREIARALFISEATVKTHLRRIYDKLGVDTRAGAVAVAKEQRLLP
Test: EMSA
Conditions: 10 mM Tris-HCl pH 7.5, 5% glycerol, 40 mM KCl, 1 mM MgCl2, 2 mM DTT, 10 ug/ml BSA; 30 C, 15 min; 30 ul with 20 ng or 25 ng (Methods) DNA; 7% …

**Q.** How did the binding turn out when “CACGTCGACCTCGGCCGCATGTCCAGCGCCATCTGTCCGGGCCGCTGAGAGCACTCTCCAGCACCTCCGGATTCCCCGCATTCACCTCGCTCCCGCGCAATGACGCGCACGCGTGTCTCACGTATGCCCACGTAGTGCCATGCGCCATGCGCGCAGGTCAGAGCCGTTTCCACCTGTCTCCAAAGGACGTGTCACACCATGGCCGCCACTC (double strand) [up-SCO6102]” was run?
**A.** binds

**Q.** With “CTCGTACGTCCGTTTCGGGGGCTCGAAGACGGCTTCGCGCCCCCCGCCGTGCCCCCACGCTTACACGTTCCGGCCTGTACGCGTCCGTTTCCGGCACCCCAAATGAACCGTCCCTGGCTCCAAGGTGAACTCTGGGCGACGAGTGTTCGAGGTCGCACCCGGATGGCTGGGGCCGGACGGTTCGCCGTGCCTAACCTGGAGACATGGACGTGAAC (double strand) [up-SCO4229]” as the sequence, how does the binding read?
**A.** binds

**Q.** How did the binding turn out when “GTTCACGTCCATGTCTCCAGGTTAGGCTCGTCGAAGATCAAGCTTGAGCCATCCGGGTGGGACCTCGAACACTCGTCGCCCAGAGTTCACCTTGGAGCCAGGGACGGTTCATTTGGGGTGCCGGAAACGGACGCGTACAGGCCGGAACGTGTAAGCGTGGGGGCACGGCGGGGGGCGCGAAGCCGTCTTCGAGCCCCCGAAACGGACGTACGAG (double strand) [up-SCO4229*]” was run?
**A.** no binding

**Q.** Which binding does the source give for “GAAAGCATGGGTGTTAAAGTCGTGTGCATGAAGCAAGCAGCCGCGCCCACCACACCACAGCGCCTCGCGCTCGTGGCGCGCCTGCACGTGGACCTCTGCCGGTGCGCGTCCGCGAACTGTCGCCCCTGACGTTCCCCCCTCACCAGTCGTCCCCACGTCAGCTCAGCGCGTCCCATCCCGCGTCCCGTCCCCCTACGGAGCATGTCCGTGTG (double strand) [up-SCO4498]” here?
**A.** binds

**Q.** Which binding does the source give for “GAGTGGCGGCCATGGTGTGACACGTCCTTTGGAGACAGGTGGAAACGGCTCTGACCTGCGCGCATGGCGCATGGCACTACGTGGGCATACGTGAGACACGCGTGCGCGTCATTGCGCGGGAGCGAGGTGAATGCGGGGAATCCGGAGGTGCTGGAGAGTGCTCTCTTCAAGCTTGACAGATGGCGCTGGACATGCGGCCGAGGTCGACGTG (double strand) [up-SCO6102*]” here?
**A.** no binding

**Q.** “CACCGGATACCTGTTGAAGGCCGAACGCCCCGAGGAGCTGTTCGCGGCCATCCACGCCGCCGCCCAGGGCCGTACGGCACTGTCCGGGCCGGTCGCCGGCCGGGTCATGGCCAACCTGCGCAAGCCGCGCCCCGCCCTCACCGACCGCGAGCGCGACATCCTGGCCCAGCTCGCCACCGGGCTCGGCAACCGGGAGATCGCCCGCGCCCTGTTCATCAG (double strand) [in-senRc]” was tested. Which binding did it give?
**A.** no binding

**Q.** How did the binding turn out when “GGCACGTGCGCGCACGCCTGTCCAGTCCGAGGACCTGCCGACAGTGCGCCCGGCCGCCCTGGCCCGGGTGCCATGACGTCCGGGCCTCGCGGAGTGGGCCGGTGGACGCGACGCCGCGTGCGCTCGTGAGCTGCCCCCTGCCCTCCCTCCGCCGGGCCCCGTGCCGAGCGAGGGAGTGCTCCACGTGACCATCGCGCCAG (double strand) [up-SCO5226]” was run?
**A.** binds

**Q.** For “GAGGAAGCCCGGTGCGAATCCGGCGCGGTCCCGCCACTGTGACCGGGGACAGGATCCCCGGGAGCCAGGAACTCTCGCCGCCGTGCTCTTCGAACCAGGGCGCGGACACCCTGAGTGAGGACCTATCGCCATGCGCGGCTGCCGTTCCGGGCTCACCAGCGACACGCTTCGACTTCCCCTTCCCACGGCCGGTTGAGCCGTGCGTGCC (double strand) [up-SCO1847]”, which binding is on record?
**A.** binds
